# Source: patent US20220146515A1 (XIAMEN INNODX BIOTECH, published 2022)
# T1: AMH3647-25 (Horse sequence) (Horse)
# T1 peptide: GLIFHQDWDWPP
# T2: AMH3647-17 (Chimpanzee sequence) (Chimpanzee)
# T2 peptide: GLIFPEDLDWPP
# T3: AMH truncated antigen 36-47 (human)
# T3 construct: also called human AMH36-47; AMH3647-27 (Human)
# T3 peptide: GLIFREDLDWPP
# T4: AMH3647-24 (Owl sequence) (Owl)
# T4 peptide: GLIFGEDVDWPP
# T5: AMH3647-6 (Otolemur sequence) (Otolemur)
# T5 peptide: GLIFHKDWDWQP
# T6: AMH3647-15 (Guinea pig sequence) (Guinea pig)
# T6 peptide: GLIFPEDQVWPP
# T7: AMH3647-16 (Degu sequence) (Degu)
# T7 peptide: GLIFPEDWVWPP
# T8: AMH3647-13 (Rat sequence) (Rat)
# T8 peptide: GLIFLEDGVWPP
# T9: AMH3647-9 (Horseshoe bat sequence) (Horseshoe bat)
# T9 peptide: GLIFHQDWDWSP
# T10: AMH3647-4 (Lemur sequence) (Lemur)
# T10 peptide: GLIFHEDWDWLP
# T11: AMH3647-1 (Deer sequence) (Deer)
# T11 peptide: ALIFQQDWDWPL
# T12: AMH3647-8 (Myotis sequence) (Myotis)
# T12 peptide: GLIFHQDWDWPA
# T13: AMH3647-19 (Dog sequence) (Dog)
# T13 peptide: GLLFQPDWDWPP
# T14: AMH3647-2 (Beaver sequence) (Beaver)
# T14 peptide: DLIFHEDWAWPP
# T15: AMH truncated antigen 256-355aa (human)
# T15 peptide: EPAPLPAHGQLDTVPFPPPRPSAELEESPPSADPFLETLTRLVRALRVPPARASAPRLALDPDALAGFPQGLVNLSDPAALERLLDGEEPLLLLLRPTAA
# T16: AMH truncated antigen 86-185aa (human)
# T16 peptide: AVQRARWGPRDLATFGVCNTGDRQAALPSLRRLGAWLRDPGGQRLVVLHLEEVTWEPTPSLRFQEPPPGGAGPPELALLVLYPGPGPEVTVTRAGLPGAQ
# T17: AMH truncated antigen 26-85 aa (human)
# T17 peptide: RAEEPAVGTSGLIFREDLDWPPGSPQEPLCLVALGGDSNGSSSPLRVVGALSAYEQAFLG
# T18: recombinant human AMH (anti-Mullerian Hormone) (human, UniProt P03971 25-560)
# T18 construct: range 1-560; also called AMH antigen; AMH (1-560)
# T18 sequence (looked up): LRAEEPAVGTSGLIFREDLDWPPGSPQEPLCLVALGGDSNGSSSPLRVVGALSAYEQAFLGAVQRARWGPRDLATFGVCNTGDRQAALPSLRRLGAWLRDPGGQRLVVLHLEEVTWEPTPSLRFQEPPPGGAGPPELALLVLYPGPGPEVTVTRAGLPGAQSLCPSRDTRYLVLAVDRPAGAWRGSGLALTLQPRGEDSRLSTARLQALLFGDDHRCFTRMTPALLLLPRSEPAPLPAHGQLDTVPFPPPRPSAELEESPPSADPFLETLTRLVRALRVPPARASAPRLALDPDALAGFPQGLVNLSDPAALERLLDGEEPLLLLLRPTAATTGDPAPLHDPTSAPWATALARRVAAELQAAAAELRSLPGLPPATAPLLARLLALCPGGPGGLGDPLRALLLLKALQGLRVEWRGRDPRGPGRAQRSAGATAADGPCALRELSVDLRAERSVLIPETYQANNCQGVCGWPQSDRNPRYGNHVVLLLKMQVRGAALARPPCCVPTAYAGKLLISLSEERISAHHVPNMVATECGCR
# T19: AMH truncated antigen 341-440aa (human)
# T19 peptide: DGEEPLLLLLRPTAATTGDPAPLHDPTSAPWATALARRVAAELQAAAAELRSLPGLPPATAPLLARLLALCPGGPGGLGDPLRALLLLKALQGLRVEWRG
# T20: AMH truncated antigen 461-560aa (human)
# T20 peptide: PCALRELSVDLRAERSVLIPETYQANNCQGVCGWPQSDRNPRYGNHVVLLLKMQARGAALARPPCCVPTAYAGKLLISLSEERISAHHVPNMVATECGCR
# T21: AMH truncated antigen 426-525aa (human)
# T21 peptide: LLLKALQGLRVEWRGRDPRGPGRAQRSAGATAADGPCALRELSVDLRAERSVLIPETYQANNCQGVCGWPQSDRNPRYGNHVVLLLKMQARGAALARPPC
# T22: AMH truncated antigen 171-270aa (human)
# T22 peptide: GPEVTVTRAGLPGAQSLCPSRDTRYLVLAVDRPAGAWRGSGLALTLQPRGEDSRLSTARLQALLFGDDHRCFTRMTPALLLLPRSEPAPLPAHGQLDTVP
# B1: monoclonal antibody C9F2-2 (antibody, V domains shown)
# VH: EVQLVESGGGLVKPGGSLKLSCAASGFAFSTYDMSWVRQTPEKRLEWVAYISPGGGATYYPDTVKGRFTISRDNAKNTLYLQMTSLKSEDTAMYYCAGRRDYYGMDYWGQGTSVTVSS
# VL: DVVMTQTPLSLPVSLGDQASISCRSSQSLVHSNGNTYLHWYLQKPGQSPKLLIYKVSNRFSGVPDRFSGSGSGTDFTLKISRVEAEDLGVYFCSQSTHVPWTFGGGTKLEIK
# notes: Mouse hybridoma antibody purified from ascites; the tie is indirect; also called hybridoma CCTCC NO: C2018183
# How the values were obtained:
# Experiment in all cases: competition ELISA, antibody preincubated with target, AMH-coated plate
# [1] = biological target: T1, AMH3647-25 (Horse sequence)
# [2] = biological target: T2, AMH3647-17 (Chimpanzee sequence)
# [3] = biological target: T3, AMH truncated antigen 36-47
# [4] = biological target: T4, AMH3647-24 (Owl sequence)
# [5] = biological target: T5, AMH3647-6 (Otolemur sequence)
# [6] = biological target: T6, AMH3647-15 (Guinea pig sequence)
# [7] = biological target: T7, AMH3647-16 (Degu sequence)
# [8] = biological target: T8, AMH3647-13 (Rat sequence)
# [9] = biological target: T9, AMH3647-9 (Horseshoe bat sequence)
# [10] = biological target: T10, AMH3647-4 (Lemur sequence)
# [11] = biological target: T11, AMH3647-1 (Deer sequence)
# [12] = biological target: T12, AMH3647-8 (Myotis sequence)
# [13] = biological target: T13, AMH3647-19 (Dog sequence)
# [14] = biological target: T14, AMH3647-2 (Beaver sequence)
# [15] = biological target: T15, AMH truncated antigen 256-355aa
# [16] = biological target: T16, AMH truncated antigen 86-185aa
# [17] = biological target: T17, AMH truncated antigen 26-85 aa
# [18] = biological target: T18, recombinant human AMH (anti-Mullerian …)
# [19] = biological target: T19, AMH truncated antigen 341-440aa
# [20] = biological target: T20, AMH truncated antigen 461-560aa
# [21] = biological target: T21, AMH truncated antigen 426-525aa
# [22] = biological target: T22, AMH truncated antigen 171-270aa
binder,measurement,setting,value
B1,percent inhibition,[1],-2%
same,percent inhibition,[2],9%
same,percent inhibition,[3],100%
same,percent inhibition,[4],19%
same,percent inhibition,[5],3%
same,percent inhibition,[6],2%
same,percent inhibition,[7],-2%
same,percent inhibition,[8],11%
same,percent inhibition,[9],-3%
same,percent inhibition,[10],22%
same,percent inhibition,[11],-6%
same,percent inhibition,[12],8%
same,percent inhibition,[13],-1%
same,percent inhibition,[14],11%
same,percent inhibition,[15],1%
same,percent inhibition,[16],2%
same,percent inhibition,[17],99%
same,percent inhibition,[18],92%
same,percent inhibition,[19],10%
same,percent inhibition,[20],6%
same,percent inhibition,[21],1%
same,percent inhibition,[22],0%
